What was measured:
[1] = target: T1, cynomolgus monkey FcγRIIIaS extracellular domain with C-terminal His-tag (cynomolgus monkey, UniProt Q8SPW2 21-206 at identity 1.00)); experiment: SPR, antibody captured, FcγR analyte
T1 construct: also called cyno FcgRIIIaS; cynoFcγRIIIaS
T1 chain: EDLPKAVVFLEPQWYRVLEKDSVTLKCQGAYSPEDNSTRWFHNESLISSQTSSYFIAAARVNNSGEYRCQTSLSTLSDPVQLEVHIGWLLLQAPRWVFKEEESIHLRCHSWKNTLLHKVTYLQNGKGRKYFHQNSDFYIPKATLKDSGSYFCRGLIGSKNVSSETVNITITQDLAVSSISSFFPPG
Protocol: (§1) The kinetic analysis of interactions between these antibodies and FcγR was carried out using BIACORE® T200 or BIACORE® 4000 (GE Healthcare). HBS-EP+ (GE Healthcare) was used as the running buffer, and the measurement temperature was set to 25° C. […] After the measurement, the antibody captured on the chip was washed off by allowing reaction with 10 mM glycine-HCl, pH1.5 and 25 mM NaOH so that the chip was regenerated and used repeatedly. The sensorgrams obtained as measurement results were analyzed by the 1:1 Langmuir binding model using the BIACORE® Evaluation Software to calculate the binding rate constant ka (L/mol/s) and dissociation rate constant kd (1/s), and the dissociation constant KD (mol/L) was calculated from these values. […] Regarding such interactions, KD values were calculated using the following 1:1 binding model described in BIACORE® T100 Software Handbook BR1006-48 Edition AE.

[2] = target: T1, cynomolgus monkey FcγRIIIaS …; experiment: SPR, KD(parent SG1)/KD(variant)
[3] = target: T2, human FcγRIIaR extracellular domain with C-terminal His-tag (human, UniProt P12318 34-217); experiment: SPR, KD(parent SG1)/KD(variant)
T2 construct: also called human FcgRIIaR; FcγRIIa (type R)
T2 chain: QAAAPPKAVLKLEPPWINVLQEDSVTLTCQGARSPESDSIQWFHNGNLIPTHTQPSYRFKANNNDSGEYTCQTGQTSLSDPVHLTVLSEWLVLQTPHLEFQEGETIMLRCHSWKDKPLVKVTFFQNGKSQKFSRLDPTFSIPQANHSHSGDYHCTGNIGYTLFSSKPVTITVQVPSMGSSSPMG

[4] = target: T3, human FcγRIIb extracellular domain with C-terminal His-tag (human, UniProt P31994 43-217); experiment: SPR, KD(parent SG1)/KD(variant)
T3 construct: also called human FcgRIIb
T3 sequence: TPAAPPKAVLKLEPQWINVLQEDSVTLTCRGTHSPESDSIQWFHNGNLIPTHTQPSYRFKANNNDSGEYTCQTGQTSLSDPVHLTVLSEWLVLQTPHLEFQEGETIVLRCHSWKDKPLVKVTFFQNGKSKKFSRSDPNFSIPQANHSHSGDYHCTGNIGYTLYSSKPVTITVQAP

[5] = target: T4, cynomolgus monkey FcγRIIa2 extracellular domain with C-terminal His-tag (cynomolgus monkey); experiment: SPR (Biacore), antibody captured, FcgR as analyte
T4 construct: also called cyno FcgRIIa2; cynoFcγRIIa2
T4 chain: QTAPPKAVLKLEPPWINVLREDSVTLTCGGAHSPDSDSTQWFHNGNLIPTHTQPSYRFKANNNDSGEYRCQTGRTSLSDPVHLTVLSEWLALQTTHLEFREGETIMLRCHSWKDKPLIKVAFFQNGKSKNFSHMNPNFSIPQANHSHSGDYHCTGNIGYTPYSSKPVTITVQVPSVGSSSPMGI
Protocol: as §1

[6] = target: T5, human FcγRIIb extracellular domain with C-terminal His-tag (human, UniProt P31994 43-217); experiment: SPR (Biacore), KD of SG1 divided by KD of variant
T5 construct: also called human FcgRIIb
T5 sequence: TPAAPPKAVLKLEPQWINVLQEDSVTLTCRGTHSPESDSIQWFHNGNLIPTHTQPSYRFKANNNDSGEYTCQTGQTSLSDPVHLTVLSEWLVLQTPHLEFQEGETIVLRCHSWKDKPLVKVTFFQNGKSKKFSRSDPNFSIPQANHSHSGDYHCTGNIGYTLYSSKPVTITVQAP
Protocol: as §1

Row | Binder | KD fold (SG1 = 1) [2] [fold] | KD fold (SG1 = 1) [3] [fold] | Kd [5] [nM] | further results
1 | MS1032LO06-MY101 (antibody, human IgG1, kappa, also called M103205H795-MY101; copies: 2 + 2) heavy: QVTLKESGPVLVKPTETLTLTCTVSGIDLSHDDISWVRQAPGKGLEWVGIISYAGSTYYASWAKGRLTISKDTSKNQVVLTMTNMDPVDTATYYCARGVPAYSHGGDLWGQGTLVTVSSASTKGPSVFPLAPSSKSTSGGTAALGCLVKDYFPEPVTVSWNSGALTSGVHTFPAVLQSSGLYSLSSVVTVPSSSLGTQTYICNVNHKPSNTKVDKKVEPKSCDKTHTCPPCPAPELLNGPSVFLFPPKPKDTLMISRTPEVTCVVVDVSEEDPEVKFNWYVDGVEVHNAKTKPREEQYNSTYRVVSVLTVLHQDWLNGKEYKCKVSNKALPKPIEKTISKAKGQPREPQVYTLPPSREEMTKNQVSLTCLVKGFYPSDIAVEWESNGQPENNYKTTPMVLDSDGSFFLYSKLTVDKSRWQQGNVFSCSVMHEALHNHYTQKSLSLSP light: DIVMTQSPATLSLSPGERATLSCTSSQSVYHANWLSWFQQKPGQPPKLLIYWASTLAYGVPSRFSGSGSGTDFTLTISSLQPEDAATYYCAGGYGGGRYAFGQGTKVEIKRTVAAPSVFIFPPSDEQLKSGTASVVCLLNNFYPREAKVQWKVDNALQSGNSQESVTEQDSKDSTYSLSSTLTLSKADYEKHKVYACEVTHQGLSSPVTKSFNRGEC | – | – | – | Kd [1]: 3200 nM
2 | MS1032LO06-SG1031 (antibody, human IgG1, kappa, name in EU numbering, tied to rows r10/r28 by row order only; also called MS103205H795-SG1031; copies: 2 + 2) heavy: QVTLKESGPVLVKPTETLTLTCTVSGIDLSHDDISWVRQAPGKGLEWVGIISYAGSTYYASWAKGRLTISKDTSKNQVVLTMTNMDPVDTATYYCARGVPAYSHGGDLWGQGTLVTVSSASTKGPSVFPLAPSSKSTSGGTAALGCLVKDYFPEPVTVSWNSGALTSGVHTFPAVLQSSGLYSLSSVVTVPSSSLGTQTYICNVNHKPSNTKVDKKVEPKSCDKTHTCPPCPAPELLNGPSVFLFPPKPKDTLMISRTPEVTCVVVDVSDEDPEVKFNWYVDGVEVHNAKTKPREEQYNSTYRVVSVLTVLHRDWLNGKEYKCKVSNKALPKPIEKTISKAKGQPREPQVYTLPPSREEMTKNQVSLTCLVKGFYPSDIAVEWESNGQPENNYKTTPPVLDSDGSFFLYSKLTVKKSRWQQGNVFSCSVMHEALHAHYTQKSLSLSP light: DIVMTQSPATLSLSPGERATLSCTSSQSVYHANWLSWFQQKPGQPPKLLIYWASTLAYGVPSRFSGSGSGTDFTLTISSLQPEDAATYYCAGGYGGGRYAFGQGTKVEIKRTVAAPSVFIFPPSDEQLKSGTASVVCLLNNFYPREAKVQWKVDNALQSGNSQESVTEQDSKDSTYSLSSTLTLSKADYEKHKVYACEVTHQGLSSPVTKSFNRGEC | 0.05 | 1.7 | – | KD fold (SG1 = 1) [4]: 3.2 fold
3 | M103205H795-MY389 / M103202L889-SK1 (antibody, human IgG1, kappa, name in EU numbering) heavy: QVTLKESGPVLVKPTETLTLTCTVSGIDLSHDDISWVRQAPGKGLEWVGIISYAGSTYYASWAKGRLTISKDTSKNQVVLTMTNMDPVDTATYYCARGVPAYSHGGDLWGQGTLVTVSSASTKGPSVFPLAPSSKSTSGGTAALGCLVKDYFPEPVTVSWNSGALTSGVHTFPAVLQSSGLYSLSSVVTVPSSSLGTQTYICNVNHKPSNTKVDKKVEPKSCDKTHTCPPCPAPELLTGPLVFLFPPKPKDTLMISRTPEVTCVVVDVSDEDPEVKFNWYVDGVEVHNAKTKPREEQYNSTYRVVSVLTVLHQDWLNGKEYKCKVSNKALPKPIEKTISKAKGQPREPQVYTLPPSREEMTKNQVSLTCLVKGFYPSDIAVEWESNGQPENNYKTTPPVLDSDGSFFLYSKLTVDKSRWQQGNVFSCSVMHEALHNHYTQKSLSLSP light: DIVMTQSPATLSLSPGERATLSCTSSQSVYHANWLSWFQQKPGQPPKLLIYWASTLAYGVPSRFSGSGSGTDFTLTISSLQPEDAATYYCAGGYGGGRYAFGQGTKVEIKRTVAAPSVFIFPPSDEQLKSGTASVVCLLNNFYPREAKVQWKVDNALQSGNSQESVTEQDSKDSTYSLSSTLTLSKADYEKHKVYACEVTHQGLSSPVTKSFNRGEC | – | – | 1600 | –
4 | M103205H795-MY516 / M103202L889-SK1 (antibody, 'Q235L' copied as printed, probably Q295L) heavy: QVTLKESGPVLVKPTETLTLTCTVSGIDLSHDDISWVRQAPGKGLEWVGIISYAGSTYYASWAKGRLTISKDTSKNQVVLTMTNMDPVDTATYYCARGVPAYSHGGDLWGQGTLVTVSSASTKGPSVFPLAPSSKSTSGGTAALGCLVKDYFPEPVTVSWNSGALTSGVHTFPAVLQSSGLYSLSSVVTVPSSSLGTQTYICNVNHKPSNTKVDKKVEPKSCDKTHTCPPCPAPELLTGPVVFLFPPKPKDTLMISRTPEVTCVVVDVSDEDPEVKFNWYVDGVEVHNAKTKPREELYNLTYRVVSVLTVLHQDWLNGKEYKCKVSNKALPKPIEKTISKAKGQPREPQVYTLPPSREEMTKNQVSLTCLVKGFYPSDIAVEWESNGQPENNYKTTPPVLDSDGSFFLYSKLTVDKSRWQQGNVFSCSVMHEALHNHYTQKSLSLSP light: DIVMTQSPATLSLSPGERATLSCTSSQSVYHANWLSWFQQKPGQPPKLLIYWASTLAYGVPSRFSGSGSGTDFTLTISSLQPEDAATYYCAGGYGGGRYAFGQGTKVEIKRTVAAPSVFIFPPSDEQLKSGTASVVCLLNNFYPREAKVQWKVDNALQSGNSQESVTEQDSKDSTYSLSSTLTLSKADYEKHKVYACEVTHQGLSSPVTKSFNRGEC | – | – | 1300 | –
5 | M103205H795-MY524 / M103202L889-SK1 (antibody, human IgG1, kappa, name in EU numbering) heavy: QVTLKESGPVLVKPTETLTLTCTVSGIDLSHDDISWVRQAPGKGLEWVGIISYAGSTYYASWAKGRLTISKDTSKNQVVLTMTNMDPVDTATYYCARGVPAYSHGGDLWGQGTLVTVSSASTKGPSVFPLAPSSKSTSGGTAALGCLVKDYFPEPVTVSWNSGALTSGVHTFPAVLQSSGLYSLSSVVTVPSSSLGTQTYICNVNHKPSNTKVDKKVEPKSCDKTHTCPPCPGPELLTGPSVFLFPPKPKDTLMISRTPEVTCVVVDVSDEDPEVKFNWYVDGVEVHNAKTKPREELYNSTYRVVSVLTVLHQDWLNGKEYKCKVSNKALPKPIEKTISKAKGQPREPQVYTLPPSREEMTKNQVSLTCLVKGFYPSDIAVEWESNGQPENNYKTTPPVLDSDGSFFLYSKLTVDKSRWQQGNVFSCSVMHEALHNHYTQKSLSLSP light: DIVMTQSPATLSLSPGERATLSCTSSQSVYHANWLSWFQQKPGQPPKLLIYWASTLAYGVPSRFSGSGSGTDFTLTISSLQPEDAATYYCAGGYGGGRYAFGQGTKVEIKRTVAAPSVFIFPPSDEQLKSGTASVVCLLNNFYPREAKVQWKVDNALQSGNSQESVTEQDSKDSTYSLSSTLTLSKADYEKHKVYACEVTHQGLSSPVTKSFNRGEC | – | – | 1100 | KD fold (SG1 = 1) [6]: 4.6 fold
6 | MS1032LO19-SG1079 (antibody, tied to rows r17/r35 by row order only; also called MS103240H795-SG1079; copies: 2 + 2) heavy: QVQLVESGGGLVQPGGSLRLSCAVSGIDLSHDDISWVRQAPGKGLEWVSIISYAGSTYYASWAKGRLTISKDTSKNQVVLTMTNMDPVDTATYYCARGVPAYSHGGDLWGQGTLVTVSSASTKGPSVFPLAPSSKSTSGGTAALGCLVKDYFPEPVTVSWNSGALTSGVHTFPAVLQSSGLYSLSSVVTVPSSSLGTQTYICNVNHKPSNTKVDKKVEPKSCDKTHTCPPCPAPELLNGPSVFLFPPKPKDTLMISRTPEVTCVVVDVSDEDPEVKFNWYVDGVEVHNAKTKPREELYNSTYRVVSVLTVLHRDWLNGKEYKCKVSNKALPKPIEKTISKAKGQPREPQVYTLPPSREEMTKNQVSLTCLVKGFYPSDIAVEWESNGQPENNYKTTPPVLDSDGSFFLYSKLTVKKSRWQQGNVFSCSVMHEALHAHYTRKELSLSP light: DIVMTQSPATLSLSPGERATLSCTTSQSVYHENWLSWFQQKPGQPPKLLIYWASTLAYGVPSRFSGSGSGTDFTLTISSLQPEDAATYYCAGGYGGGRYAFGQGTKVEIKRTVAAPSVFIFPPSDEQLKSGTASVVCLLNNFYPREAKVQWKVDNALQSGNSQESVTEQDSKDSTYSLSSTLTLSKADYEKHKVYACEVTHQGLSSPVTKSFNRGEC | 0.04 | 0.1 | – | –
